The values that follow come from US20160264677A1 (GANYMED PHARMACEUTICALS, published 2016).

Where a chain is given by its changes, count along the chain named. Names and notes keep the numbering of the source.

Assay [1] addresses T1, human CLDN4 (claudin 4) (human, UniProt O14493 1-209).
T1 sequence: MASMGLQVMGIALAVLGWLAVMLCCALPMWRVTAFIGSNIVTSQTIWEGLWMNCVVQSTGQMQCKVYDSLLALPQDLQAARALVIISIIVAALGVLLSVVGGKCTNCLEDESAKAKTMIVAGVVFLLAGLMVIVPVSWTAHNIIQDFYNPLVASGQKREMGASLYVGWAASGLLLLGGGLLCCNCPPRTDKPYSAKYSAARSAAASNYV
The assay is described as follows: flow cytometry, HEK293 cells stably expressing the claudin. (In general: Flow cytometry measures light scatter and fluorescence of single cells or particles in a stream.)
Experimental: (§1) To test the specificities and affinities of CLDN6-specific chimeric monoclonal antibodies binding to HEK293 cells stably transfected with CLDN3, 4, 6 or 9, respectively, and tumor cell lines that endogenously express CLDN6 was analyzed by flow cytometry. Therefore, cells were harvested with 0.05% Trypsin/EDTA, washed with FACS buffer (PBS containing 2% FCS and 0.1% sodium azide) and resuspended in FACS buffer at a concentration of 2×10⁶ cells/ml. 100 μl of the cell suspension were incubated with the appropriate antibody at indicated concentrations for 60 min at 4° C. A chimeric cross-reactive antibody (chimAB 5F2D2) was used to detect CLDN6 and CLDN9 expression. […] The cells were washed twice and resuspended in FACS buffer. The binding was analyzed by flow cytometry using a BD FACSArray.

The target in assay [2] is T2, human CLDN3 (claudin 3) (human, UniProt O15551 1-220).
T2 sequence: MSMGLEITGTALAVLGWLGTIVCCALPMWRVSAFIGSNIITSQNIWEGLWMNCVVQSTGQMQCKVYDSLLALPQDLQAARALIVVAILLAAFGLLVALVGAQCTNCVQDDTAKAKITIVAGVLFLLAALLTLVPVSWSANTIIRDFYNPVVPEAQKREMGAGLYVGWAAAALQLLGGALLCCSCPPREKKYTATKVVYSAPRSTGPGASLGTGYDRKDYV
Described as above.
Experimental: as §1

Assay [3] deals with T3, human CLDN6 (claudin 6), full length (human, UniProt P56747 1-220).
T3 construct: denatured cell lysate in the Western blot; also called NP 067018.2
T3 sequence: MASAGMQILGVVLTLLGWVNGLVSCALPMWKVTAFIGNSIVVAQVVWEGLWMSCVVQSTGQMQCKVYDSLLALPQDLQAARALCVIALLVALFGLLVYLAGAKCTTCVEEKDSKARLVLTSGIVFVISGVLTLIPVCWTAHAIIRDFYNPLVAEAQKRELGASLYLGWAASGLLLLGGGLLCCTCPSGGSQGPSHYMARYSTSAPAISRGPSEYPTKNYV
The assay can be described thus: flow cytometry, saturation binding on HEK293 cells stably expressing human CLDN6, median fluorescence.
Experimental: (§2) The binding of CLDN6-specific chimeric monoclonal antibodies to cells expressing the target was analyzed by flow cytometry. Therefore, cells were harvested with 0.05% Trypsin/EDTA, washed with FACS buffer (PBS containing 2% FCS and 0.1% sodium azide) and resuspended in FACS buffer at a concentration of 2×10⁶ cells/ml. 100 pl of the cell suspension were incubated with the appropriate antibody at indicated concentrations for 30 min at 4° C. […] The cells were washed twice and resuspended in FACS buffer. The binding was analyzed by flow cytometry using a BD FACSArray.

Assay [4] has as its target T4, human CLDN9 (claudin 9) (human, UniProt O95484 1-217).
T4 sequence: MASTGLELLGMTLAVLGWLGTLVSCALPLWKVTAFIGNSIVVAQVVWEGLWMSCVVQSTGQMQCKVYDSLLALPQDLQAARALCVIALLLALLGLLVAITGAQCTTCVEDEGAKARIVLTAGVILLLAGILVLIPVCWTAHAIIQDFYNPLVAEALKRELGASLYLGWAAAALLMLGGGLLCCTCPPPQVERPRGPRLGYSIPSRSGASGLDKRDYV
The assay can be described thus: flow cytometry, HEK293 cells stably expressing the claudin.
Experimental: as §1

Assay [5] has as its target T1, human CLDN4 (claudin 4). The assay can be described thus: flow cytometry, HEK293T cells transiently co-transfected with the claudin and a fluorescence reporter.
Experimental: (§3) To test the binding of monoclonal antibodies to CLDN6 and its homologous HEK293T cells were transiently transfected with the corresponding claudin-coding plasmid and the expression was analyzed by flow cytometry. In order to differentiate between transfected and non-transfected cells, HEK293T cells were co-transfected with a fluorescence marker as a reporter. 24 h post transfection cells were harvested with 0.05% trypsin/EDTA, washed with FACS buffer (PBS containing 2% FCS and 0.1% sodium azide) and resuspended in FACS buffer at a concentration of 2×10⁶ cells/ml. 100 μl of the cell suspension were incubated with the appropriate antibody at indicated concentrations for 30 min at 4° C. […] The cells were washed twice and resuspended in FACS buffer. The binding was analyzed by flow cytometry using a BD FACSArray. The expression of the fluorescence marker was plotted on the horizontal axis against the antibody binding on the vertical axis.
Assay [6] deals with T2, human CLDN3 (claudin 3). The assay is described as above.
Experimental: as §3
Assay [7] has as its target T4, human CLDN9 (claudin 9). The description is as above.
Experimental: as §3
The target of assay [8] is T3, human CLDN6 (claudin 6), full length. The assay can be described thus: flow cytometry, NEC8 testicular cancer cells endogenously expressing human CLDN6.
Experimental: as §2
For assay [9] the target is unchanged. The assay can be described thus: flow cytometry on OV90 ovarian cancer cells endogenously expressing CLDN6, median fluorescence.
Experimental: as §2
Assay [10] shares this target. The assay can be described thus: flow cytometry on NEC8 testicular cancer cells endogenously expressing CLDN6, median fluorescence.
Experimental: as §2
Assay [11] addresses T4, human CLDN9 (claudin 9). The assay can be described thus: flow cytometry, HEK293T cells transiently co-transfected with the claudin and a fluorescence reporter. The source holds these as a separate data set.
In assay [12] the target is T2, human CLDN3 (claudin 3). The description is as above. The source holds these as a separate data set.
The target of assay [13] is T1, human CLDN4 (claudin 4). The description is as above. The source holds these as a separate data set.

B1: chimeric monoclonal antibody chimAB 64A (antibody, human IgG1, kappa, V domains shown)
VH: EVQLQQSGPELVKPGASMKISCKASGYSFTGYTMNWVKQSHGKNLEWIGLINPYNGGTIYNQKFKGKATLTVDKSSSTAYMELLSLTSEDSAVYYCARDYGFVLDYWGQGTTLTVSS
VL: QIVLTQSPSIMSVSPGEKVTITCSASSSVSYMHWFQQKPGTSPKLCIYSTSNLASGVPARFSGRGSGTSYSLTISRVAAEDAATYYCQQRSNYPPWTFGGGTKLEIKR
notes: Mouse/human chimeric IgG1, kappa
Regarding B1, the binding result with human CLDN4 (claudin 4) [1] and with human CLDN3 (claudin 3) [2] was “no binding (tested: 25 µg/ml (legend))” throughout. In [3], the EC50 (read off the curve) (in general, the concentration that produces a half-maximal response) is around 0.2 µg/mL.

B2: chimeric monoclonal antibody chimAB 61D (antibody, human IgG1, kappa, V domains shown)
VH: B1 VH with I59S, V72I, F102Y
VL: QIVLTQSPAIMSASPGEKVTITCSASSSVSYLHWFQQKPGTSPKLWVYSTSNLPSGVPARFGGSGSGTSYSLTISRMEAEDAATYYCQQRSIYPPWTFGGGTKLEIKR
notes: as for B1
On to B2, for which the binding result with human CLDN9 (claudin 9) [4], with human CLDN4 (claudin 4) [1] and with human CLDN3 (claudin 3) [2] was “no binding (tested: 25 µg/ml (legend))” each time.

B3: murine monoclonal antibody muMAB 64A (antibody, mouse IgG2a, V domains shown)
VH: B1 VH
VL: QIVLTQSPSIMSVSPGEKVTITCSASSSVSYMHWFQQKPGTSPKLCIYSTSNLASGVPARFSGRGSGTSYSLTISRVAAEDAATYYCQQRSNYPPWTFGGGTKLEIK
notes: also called GT512muMAB 64A; DSM ACC3070
Turning to B3, the binding result in the assay with human CLDN4 (claudin 4) [5] and with human CLDN3 (claudin 3) [6] was “no binding (tested: 25 µg/ml (legend))” throughout.

B4: murine monoclonal antibody muMAB 61D (antibody, mouse IgG2a, V domains shown)
VH: B1 VH with I59S, V72I, F102Y
VL: QIVLTQSPAIMSASPGEKVTITCSASSSVSYLHWFQQKPGTSPKLWVYSTSNLPSGVPARFGGSGSGTSYSLTISRMEAEDAATYYCQQRSIYPPWTFGGGTKLEIK
notes: the assignment is an inference; also called GT512muMAB 61D; DSM ACC3069
Regarding B4, the binding result with human CLDN9 (claudin 9) [7], with human CLDN4 (claudin 4) [5] and with human CLDN3 (claudin 3) [6] was “no binding (tested: 25 µg/ml (legend))” throughout.

B5: chimeric monoclonal antibody mAb206-LCC (antibody, human IgG1, kappa, V domains shown)
VH: B1 VH
VL: B2 VL
notes: inferred; also called light-chain combination variant
On to B5, for which the “fold stronger binding affinity compared to chimAB 64A, mAb206-SUBG and mAb206-SUBS” value in [8] was determined as 3 fold. For the same molecule, the results for the 50% effective concentration (EC50 (read off the curve)) in assay [9], in assay [10] and in [3] were around 0.4 µg/mL, around 0.2 µg/mL and around 0.2 µg/mL, respectively. In addition, the binding result in the assay with human CLDN9 (claudin 9) [11] and in the assay with human CLDN3 (claudin 3) [12] was “no binding” each time.

B6: chimeric monoclonal antibody mAb206-SUBG (antibody, human IgG1, kappa, V domains shown)
VH: B1 VH
VL: B1 VL with C46G
notes: Chimeric IgG1, kappa; also called amino acid substitution variant (C46G)
With B6, the concentration giving a half-maximal response (EC50 (read off the curve)) is around 0.5 µg/mL in assay [9], around 0.5 µg/mL in assay [10] and around 0.2 µg/mL in [3]. The binding result with human CLDN9 (claudin 9) [11], with human CLDN4 (claudin 4) [13] and with human CLDN3 (claudin 3) [12] was “no binding” throughout.

B7: chimeric monoclonal antibody mAb206-SUBS (antibody, human IgG1, kappa, V domains shown)
VH: B1 VH
VL: B1 VL with C46S
notes: Chimeric IgG1, kappa; also called amino acid substitution variant (C46S)
Take B7: the “EC50 (read off the curve)” value in assay [9] is around 0.5 µg/mL; in [10] it was around 0.5 µg/mL; in assay [3] it was around 0.2 µg/mL. Besides, the binding result with human CLDN9 (claudin 9) [11], with human CLDN4 (claudin 4) [13] and in the assay with human CLDN3 (claudin 3) [12] was “no binding” throughout.
